Experimental data from patent US20230340555A1, “PRODUCTION OF GLYCOSYLATED CANNABINOIDS” (WILLOW BIOSCIENCES, INC., priority 2020, published 2023).

B1: AtUGT88A1: UDP-glycosyl transferase from Arabidopsis thaliana, amino acid sequence SEQ ID NO: 6 (protein, listed as Arabidopsis thaliana)
chain: MGEEAIVLYPAPPIGHLVSMVELGKTILSKNPSLSIHIILVPPPYQPESTATYISSVSSSFPSITFHHLPAVTPYSSSSTSRHHHESLLLEILCFSNPSVHRTLFSLSRNFNVRAMIIDFFCTAVLDITADFTFPVYFFYTSGAACLAFSFYLPTIDETTPGKNLKDIPTVHIPGVPPMKGSDMPKAVLERDDEVYDVFIMFGKQLSKSSGIIINTFDALENRAIKAITEELCFRNIYPIGPLIVNGRIEDRNDNKAVSCLNWLDSQPEKSVVFLCFGSLGLFSKEQVIEIAVGLEKSGQRFLWVVRNPPELEKTELDLKSLLPEGFLSRTEDKGMVVKSWAPQVPVLNHKAVGGFVTHCGWNSILEAVCAGVPMVAWPLYAEQRFNRVMIVDEIKIAISMNESETGFVSSTEVEKRVQEIIGECPVRERTMAMKNAAELALTETGSSHTALTTLLQSWSPK
B2: AtUGT76E12: UDP-glycosyl transferase from Arabidopsis thaliana, amino acid sequence SEQ ID NO: 14 (protein, listed as Arabidopsis thaliana)
chain: MQVLGMEEKPARRSVVLVPFPAQGHISPMMQLAKTLHLKGFSITVVQTKFNYFSPSDDFTHDFQFVTIPESLPESDFKNLGPIQFLFKLNKECKVSFKDCLGQLVLQQSNEISCVIYDEFMYFAEAAAKECKLPNIIFSTTSATAFACRSVFDKLYANNVQAPLKETKGQQEELVPEFYPLRYKDFPVSRFASLESIMEVYRNTVDKRTASSVIINTASCLESSSLSFLQQQQLQIPVYPIGPLHMVASAPTSLLEENKSCIEWLNKQKVNSVIYISMGSIALMEINEIMEVASGLAASNQHFLWVIRPGSIPGSEWIESMPEEFSKMVLDRGYIVKWAPQKEVLSHPAVGGFWSHCGWNSTLESIGQGVPMICRPFSGDQKVNARYLECVWKIGIQVEGELDRGVVERAVKRLMVDEEGEEMRKRAFSLKEQLRASVKSGGSSHNSLEEFVHFIRTL
B3: CsUGT73C6: UDP-glycosyl transferase from Cannabis sativa, amino acid sequence SEQ ID NO: 16 (protein, listed as Cannabis sativa)
chain: MASEPYKLHLIVIPFMAPGHFIPMADMARKLAEHGAMITLITLPVIAARIRPIIEQATENSNLKIQLVQVSLPLHEFGLPEGCDTVDLVPSRNLLLSFFIALDELQQPIEQVVSELKPRPSCIIADKHLPWTAEIATKFGIPRVLFDGMSCFSLLCNHMIRKSQVHLSVPMSVPFVVPGMPDHLEFTRNQLAADLYPNLEFGQKFHDRIRESEEGADGFLVNSFEELEWKYVEGYRKEKVGKAWCIGPVSLFNKTKLEVAQRGNNPAGAVDEKQCTEWLDSWPKSCVVYACLGSVSRLLIPQMIELGVALEASNKPFIWVIRGYDQEEEIEKWISESGFKERTKSRALLIFGWAPQVLILSHSSVGGFLTHCGWNSTLEGITYGKPMITWPMFAEQFYNQKLIVQVLKVGESVGPKFVVPYGREEEFGVFVLSKDILEAIEKVMAQDKEGEERRERVKRLSDMAQKAIEEGGSSYLDMKLFIEDIRNLHIS
B4: AtUGT73B4: UDP-glycosyl transferase from Arabidopsis thaliana, amino acid sequence SEQ ID NO: 10 (protein, listed as Arabidopsis thaliana)
chain: MNREQIHILFFPFMAHGHMIPLLDMAKLFARRGAKSTLLTTPINAKILEKPIEAFKVQNPDLEIGIKILNFPCVELGLPEGCENRDFINSYQKSDSFDLFLKFLFSTKYMKQQLESFIETTKPSALVADMFFPWATESAEKIGVPRLVFHGTSSFALCCSYNMRIHKPHKKVASSSTPFVIPGLPGDIVITEDQANVTNEETPFGKFWKEVRESETSSFGVLVNSFYELESSYADFYRSFVAKKAWHIGPLSLSNRGIAEKAGRGKKANIDEQECLKWLDSKTPGSVVYLSFGSGTGLPNEQLLEIAFGLEGSGQNFIWVVSKNENQVGTGENEDWLPKGFEERNKGKGLIIRGWAPQVLILDHKAIGGFVTHCGWNSTLEGIAAGLPMVTWPMGAEQFYNEKLLTKVLRIGVNVGATELVKKGKLISRAQVEKAVREVIGGEKAEERRLRAKELGEMAKAAVEEGGSSYNDVNKFMEELNGRK
B5: HaUGT76G1L: UDP-glycosyl transferase from Helianthus annuus, amino acid sequence SEQ ID NO: 2 (protein, listed as Helianthus annuus)
chain: METQTETTNTVRRNRRIIFFPLPYQGHINPMLQLANLLYSKGFSITILHTNFNKPKTSNYPHFTFKFILDNDPHDGRYSNLPLHGMGAFNRVFVFNEDGADELRHELELLMLASKEDDEHVSCLITDALWHFTQSVADSLSLPRLVLRTSSLFSFLIYASIPLLDDRGYLSLSDNTMALILDGLGYHDLSDNKRLEEQVEEFPMLKVKDIVKMGFKREKDGAGGMIDNMVKQTKTSSGIIWNSFKELEESELETIRRDIPAPSFPIPFAKHFTASSSSLLEHDRSFFPWLDQQPPKSVVYVSFGSVAQVEEKHFMEMVHGLVDSKQLFLWVVRPGFVSGSTWLEPLPDGFPGERGRIVKWAPQQEVLGHEAIGAFWTHGGWNSTLESVCEGVPMICSPFWGDQPLDARYVSDVWKVGVYLENGWKREEITGAIRRVMTDEEMRERARVLKQKLDVSLMKGGSSYESVESLVAYVSSF
B6: AtUGT76C4: UDP-glycosyl transferase from Arabidopsis thaliana, amino acid sequence SEQ ID NO: 12 (protein, listed as Arabidopsis thaliana)
chain: MEKSNGLRVILFPLPLQGCINPMIQLAKILHSRGFSITVIHTCFNAPKASSHPLFTFIQIQDGLSETETRTRDVKLLITLLNQNCESPVRECLRKLLQSAKEEKQRISCLINDSGWIFTQHLAKSLNLMRLAFNTYKISFFRSHFVLPQLRREMFLPLQDSEQDDPVEKFPPLRKKDLLRILEADSVQGDSYSDMILEKTKASSGLIFMSCEELDQDSLSQSREDFKVPIFAIGPSHSHFPASSSSLFTPDETCIPWLDRQEDKSVIYVSIGSLVTINETELMEIAWGLSNSDQPFLWVVRVGSVNGTEWIEAIPEYFIKRLNEKGKIVKWAPQQEVLKHRAIGGFLTHNGWNSTVESVCEGVPMICLPFRWDQLLNARFVSDVWMVGIHLEGRIERDEIERAIRRLLLETEGEAIRERIQLLKEKVGRSVKQNGSAYQSLQNLINYISSF

System: CN3 yeast strain host cells
Assay: Detection of glycosylated cannabinoids and cannabinoid precursors in yeast cells expressing UDP-glycosyl transferase (HPLC-MS)
Assay type: cell-based
Set-up: key to CBDA-glc / OLA-glc / CBGA-glc / CBGA-(glc)2 / CBD-glc / CBD-(glc)2 / OLA-(glc)2 / CBGA-glucuronic acid: (+) represents the lowest detected quantities; (++), (+++), and (++++) signify relative increasing intermediate detected levels; (++), (+++), and (++++) signify relative increasing intermediate detected levels; (++), (+++), and (++++) signify relative increasing intermediate detected levels; (+++++) represents the highest detected quantities; No detectable levels of a glycosylated cannabinoid compound or glycosylated cannabinoid precursor compound are indicated by “n.d.”
Conditions: for production of glycosylated cannabinoids or cannabinoid precursor compounds: pellet or supernatant of recombinant yeast host cells transformed with the UGT; for CBD-glc: 0.5 g/L CBD
Text: CN3 yeast strain host cells were transformed as described in Example 1 with one of the following heterologous UGT genes: (1) AtUGT73C6, (2) AtUGT73B4, (3) AtUGT71 D1, (4) AtUGT76E12, (5) AtUGT88A1, (6) HaUGT76G1-L, (7) At5g49690, (8) AtUGT76C4, (9) CsUGT73C6, (10) SrUGT76C1, (11) AtUGT85A3, (12) AtUGT73B1, (13) Atg65550, (14) AtUGT76B1, (15) ATUGT76B1, (16) CsUGT75B2, (17) CsUGT73B4, (18) CsUGT73B1, (19) CsUGT75D1-DN11028, and (20) CsUGT71D1-DN48028. The transformed host cells were pre-grown overnight in yeast extract peptone dextrose (YPD) growth medium and then back diluted into yeast extract peptone galactose (YPG) to OD600 = 0.2. […] Strains were incubated for 20 h at 28° C. rotating at 600 RPM in an EPOCH|2 microplate reader (BioTek). Subsequently, samples were treated with an extraction solvent (80 % Acetonitrile, 20 % Methanol) for 1 hour rotating at 100 RPM. After 20 minutes centrifugation at 12,000 RPM, the supernatant was filtered with a basix 13 mm syringe filter (0.22 µm pore size, Nylon membrane) and transferred to a new tube for further analysis.
Glycosylated cannabinoid compounds and glycosylated cannabinoid precursor compounds were assayed in the supernatant and the cellular pellet employing HPLC and HPLC-MS analysis. HPLC and HPLC-MS analysis was carried out as described below to detect the following glycosylated cannabinoid and cannabinoid precursor compounds: CBGA monoglucoside, CBGA diglucoside, CBDA monoglucoside, CBDA diglucoside, CBGA glucuronic acid, CBD monoglucoside, CBD diglucoside, olivetolic acid monoglucoside (“OliAcid monoglucoside”), olivetolic acid diglucoside (“OliAcid diglucoside”).
HPLC analysis was carried out on an Agilent Technologies 1290 Infinity system, consisting of a vacuum degasser, a binary pump, a thermostated autosampler, a thermostated column compartment and a diode array detector (DAD). A Zorbax Eclipse Plus EC-18 column (2.1 × 50 mm, 1.8 µm, Agilent, USA) was used with a mobile phase composed of 0.1% formic acid in both (A) water with 0.2 % Formic Acid and (B) Acetonitrile with 0.2 % Formic Acid. The chromatographic conditions were set as follows: 0.0-8.0 min linear gradient from 5 to 95% B; 8.1-9.09 min […], 9.10-11.0 min 5 to 95% A for equilibration of the column with the initial conditions. The flow rate was set at 0.4 ml/min. The column temperature was set at 40° C. The sample injection volume was 5 µL. The UV/DAD acquisitions were carried out in the range 190-400 nm and chromatograms were acquired at 265 and 350 nm.
HPLC-MS analysis was carried out to confirm the identity of the HPLC peaks using an Agilent Technologies 6530 Accurate-Mass quadrupole time of flight (QToF) mass spectrometer operating in negative ionization (ESI -) mode. The mass spectrometer experimental parameters were set as follows: the capillary voltage was 3.5 kV, the nebulizer (N2) pressure was 35 psi, the drying gas temperature was 350° C., the drying gas flow was 11 L/min and the skimmer voltage was 65 V. Data were acquired by Agilent Mass Hunter software. The mass spectrometer was operated in full-scan mode in the m/z range 50-1100. Extracted ion chromatograms (EICs) were obtained with an accuracy of 10 ppm m/z from total ion chromatogram (TIC) employing the m/z corresponding to the molecular ions [M-H]^- 385.1504 for Olivetolic Acid Mono-Glucoside, 547.2032 for Olivetolic Acid di-Glucoside, 521.2756 for CBGA Mono-Glucoside, 683.3284 for CBGA Di-Glucoside, 535.2549 for CBGA Glucuronic Acid, 519.2600 for CBDA Mono-Glucoside, 475.2701 for CBD Mono-Glucoside, 637.3302 for CBD Di-Glucoside.
The glycosylated cannabinoid compounds and glycosylated cannabinoid precursor compounds were detected in a relative and semi-quantitative fashion. […]

[1] = 20 h growth, detected in PELLET, 0.05 mM hexanoic acid
[2] = 20 h growth, detected in SUPERNATANT, 0.2 mM hexanoic acid

Molecule | CBGA-glc [1] | OLA-glc [1] | production of glycosylated cannabinoids or cannabinoid precursor compounds | CBGA-glc [2] | OLA-glc [2] | CBGA-(glc)2 [1] | CBGA-glucuronic acid [1] | OLA-(glc)2 [1] | CBD-glc (20 h growth, detected in PELLET) | OLA-(glc)2 [2] | CBD-glc (20 h growth, detected in SUPERNATANT) | CBDA-glc [1]
B1 | ++ | + | detected | – | – | – | – | – | – | – | – | –
B2 | +++ | +++ | detected | + | +++ | – | – | – | – | – | – | –
B3 | – | ++ | detectable | – | ++ | – | – | – | – | – | – | –
B4 | ++++ | ++++ | detected | ++ | +++++ | ++ | ++ | ++ | ++ | ++ | ++ | –
B5 | – | ++ | detected | – | – | – | – | – | – | – | – | ++
B6 | – | ++ | detected | – | – | – | – | – | – | – | – | –
